From patent US20040176301A1
pIC50: −log10 of the molar value. Square brackets hold non-standard residues; d marks the D form. Phe(3-F) = N[C@@H](Cc1cccc(F)c1)C(=O)O; Phe(4-F) = N[C@@H](Cc1ccc(F)cc1)C(=O)O; Tic = O=C(O)[C@@H]1Cc2ccccc2CN1; Cha = N[C@@H](CC1CCCCC1)C(=O)O; Phe(ol) = N[C@H](CO)Cc1ccccc1; Phg = N[C@H](C(=O)O)c1ccccc1; Nle = CCCC[C@H](N)C(=O)O; Nva = CCC[C@H](N)C(=O)O; Abu = CC[C@H](N)C(=O)O

Experiments:
[1] = biological target: Cyclin A (UniProt P20248); assay: competitive ELISA: cyclin A binding to immobilised biotinyl-Ahx-HAKRRLIF-NH2
[2] = biological target: Cyclin A (UniProt P20248); assay: competitive cyclin A binding ELISA; competitor: immobilised biotinyl-Ahx-His-Ala-Lys-Arg-Arg-Leu-Ile-Phe-NH2 (SEQ ID No. 186); details: scale: relative to H-His-Ala-Lys-Arg-Arg-Leu-Ile-Phe-NH2
[3] = biological target: Cyclin D1 (UniProt P24385); assay: competitive ELISA: cyclin D1 binding to immobilised biotinyl-Ahx-p21(149-159)
Chain of Cyclin D1 (P24385 whole entry): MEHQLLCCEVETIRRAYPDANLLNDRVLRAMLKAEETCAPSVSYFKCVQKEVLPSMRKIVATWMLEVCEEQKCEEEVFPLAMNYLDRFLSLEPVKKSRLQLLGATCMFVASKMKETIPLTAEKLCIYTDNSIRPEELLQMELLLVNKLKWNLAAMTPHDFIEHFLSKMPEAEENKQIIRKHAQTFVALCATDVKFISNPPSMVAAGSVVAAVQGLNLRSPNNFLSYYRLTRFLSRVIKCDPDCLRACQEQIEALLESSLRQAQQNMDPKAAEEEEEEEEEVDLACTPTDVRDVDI

[4] = biological target: Cyclin A (UniProt P20248); assay: competitive cyclin A binding ELISA; competitor: immobilised biotinyl-Ahx-HAKRRLIF-NH2; at 100 µM test peptide
[5] = biological target: Cyclin A (UniProt P20248); assay: cyclin A binding assay, IC50 (immobilised ligand not given)

Relative activity, Cyclin A Binding [2] | Substance | other results
 | H-Dab-Ala-Lys-Arg-Arg-Leu-Ile Phe-NH2 (peptide) | Relative activity, Cyclin A Binding (relative to HAKRRLIF-NH2) [1]: 0.4
< 0.1 | H-HAKRRLIL-NH2 | 
0.2 | H-HA[Nle]RRLIF-NH2 | 
 | P21 N-terminus peptide KAURRLFG-NH2 | pIC50 [3]: 3.87
< 0.1 | H-HAKARLIF-NH2 | 
< 0.1 | H-His-Ala-Lys-Nle-Arg-Leu-Ile-Phe-NH2 (peptide) | 
< 0.1 | H-HAKRR[Cha]IF-NH2 | 
1.5 | H-HARRRLIF-NH2 | 
0.1 | H-His-Ala-Lys-Arg-Arg-Leu-Ile-D-Pse-OH (peptide) | 
< 0.1 | H-His-Ala-Lys-Arg-Arg-1Nap-Ile-Phe-NH2 (peptide) | 
1.3 | H-H[Abu]KRRLIF-NH2 | 
< 0.1 | H-H[Phg]KRRLIF-NH2 | 
1.7 | H-HVKRRLIF-NH2 | 
0.2 | H-HAKRRLIY-NH2 | 
 | H-Arg-Leu-Ile-Phe-NH2 (peptide) | Maximum Inhibition (%) [4]: 50%
< 0.1 | H-HAKRRLI[Tic]-NH2 | 
< 0.1 | H-His-Ala-Lys-Arg-Aib-Leu-Ile-Phe-NH2 (peptide) | 
0.2 | H-HIKRRLIF-NH2 | 
< 0.1 | H-HAKRRLI[Cha]-NH2 | 
 | H-FAKRRLIF-NH2 | Relative activity, Cyclin A Binding (relative to HAKRRLIF-NH2) [1]: 1
0.2 | H-His-Ala-Lys-Arg-Arg-Leu-Ile-Dhp-OH (peptide) | 
0.1 | H-HGKRRLIF-NH2 | 
 | P27 peptide H-Ser-Ala-Abu-Arg-Asn-Leu-Phe-Gly-NH2 | pIC50 [3]: < 3.70
 | P21 N-terminus-LIF hybrid KAURRLIF-NH2 (peptide) | pIC50 [3]: 4.70

Relative activity, Cyclin A Binding [2] | Substance | other results
< 0.1 | H-His-Ala-Lys-Arg-Arg-Leu-Ile-1Nap-NH2 (peptide) | 
5 | H-HAKRRLI[Phe(4-F)]-NH2 | 
0.6 | H-HAKRRL[Nva]F-NH2 | 
< 0.1 | H-HAKRRLIK-NH2 | 
1.5 | H-HAKRRLVF-NH2 | 
< 0.1 | H-HAKRR[Nle]IF-NH2 | 
1.2 | H-His-Bug-Lys-Arg-Arg-Leu-Ile-Phe-NH2 (peptide) | 
0.4 | H-HAKRRLFF-NH2 | 
 | H-Hse-Ala-Lys-Arg-Arg-Leu-Ile Phe-NH2 (peptide) | Relative activity, Cyclin A Binding (relative to HAKRRLIF-NH2) [1]: 2
< 0.1 | H-HAKQRLIF-NH2 | 
< 0.1 | H-H[Nva]KRRLIF-NH2 | 
0.7 | H-His-Ala-Lys-Arg-Arg-Leu-Ile-2Nap-NH2 (peptide) | 
0.2 | H-His-Ala-Lys-Arg-Arg-Leu-Ile-L-Pse-OH (peptide) | 
< 0.1 | H-His-Ala-Lys-Arg-Sar-Leu-Ile-Phe-NH2 (peptide) | 
 | H-AAKRRLIF-NH2 | Relative activity, Cyclin A Binding (relative to HAKRRLIF-NH2) [1]: 2.5
0.2 | H-HA[Abu]RRLIF-NH2 | 
< 0.1 | H-HAKRALIF-NH2 | 
1 | H-HAKRRLI[Phe(ol)] | 
 | H-Pya-Ala-Lys-Arg-Arg-Leu-Ile Phe-NH2 (peptide) | Relative activity, Cyclin A Binding (relative to HAKRRLIF-NH2) [1]: 0.2
< 0.1 | H-HAKRNLIF-NH2 | 
< 0.1 | H-His-Ser-Lys-Arg-Arg-Leu-Ile-D-Pse-OH (peptide) | 
0.1 | H-HAKKRLIF-NH2 | 
< 0.1 | H-HAKRR[Nva]IF-NH2 | 
 | Ac-Arg-Arg-Leu-Asn-Phe-NH2 (peptide) | pIC50 [5]: 5.09

Relative activity, Cyclin A Binding [2] | Substance | other results
0.2 | H-His-Ala-Lys-Cit-Arg-Leu-Ile-Phe-NH2 (peptide) | 
< 0.1 | H-His-Ala-Lys-Hse-Arg-Leu-Ile-Phe-NH2 (peptide) | 
0.2 | H-HAKRRIIF-NH2 | 
< 0.1 | H-His-Ser-Lys-Arg-Arg-Leu-Ile-Pheol (peptide) | 
0.3 | H-HAKRRL[Nle]F-NH2 | 
0.8 | H-HAKRRLI[Phe(3-F)]-NH2 | 
 | H-Asn-Leu-Phe-Gly-NH2 (peptide) | Maximum Inhibition (%) [4]: 80%
0.8 | H-HAKRRLAF-NH2 | 
 | H-Thi-Ala-Lys-Arg-Arg-Leu-Ile Phe-NH2 (peptide) | Relative activity, Cyclin A Binding (relative to HAKRRLIF-NH2) [1]: 0.2
< 0.1 | H-HAKRRLF-NH2 | 
0.1 | H-HAKRRLIW-NH2 | 
0.5 | H-His-Ala-Lys-Arg-Arg-Leu-1Nap-Phe-NH2 (peptide) | 
< 0.1 | H-His-Ser-Lys-Arg-Arg-Leu-Ile-L-Pse-OH (peptide) | 
0.5 | H-HAARRLIF-NH2 | 
0.2 | H-HAKRSLIF-NH2 | 
0.2 | H-HFKRRLIF-NH2 | 
0.5 | H-HAKRRL[Cha]F-NH2 | 
0.6 | H-HAKRRLLF-NH2 | 
< 0.1 | H-His-Ala-Lys-Arg-Arg-Leu-Ile-Hof-NH2 (peptide) | 
< 0.1 | H-HAKRRFIF-NH2 | 
1.4 | H-HALRRLIF-NH2 | 
< 0.1 | H-HAKRRVIF-NH2 | 
< 0.1 | H-HAKRPLIF-NH2 | 
